# B1: FLAG-tagged DND1 wild-type (Dead End, full-length human protein 1-353) [human] / MEX3A [human (endogenous in HEK293T)] (parent)
# chain 1: MQSKRDCELWCERVNPENKAALEAWVRETGIRLVQVNGQRKYGGPPPGWVGSPPPAGSEVFIGRLPQDVYEHQLIPLFQRVGRLYEFRLMMTFSGLNRGFAYARYSSRRGAQAAIATLHNHPLRPSCPLLVCRSTEKCELSVDGLPPNLTRSALLLALQPLGPGLQEARLLPSPGPAPGQIALLKFSSHRAAAMAKKALVEGQSHLCGEQVAVEWLKPDLKQRLRQQLVGPFLRSPQPEGSQLALARDKLGFQGARATLQLLCQRMKLGSPVFLTKCLGIGPAGWHRFWYQVVIPGHPVPFSGLIWVVLTLDGRDGHEVAKDAVSVRLLQALSESGANLLWSAGAEAGTMVKQ
# chain 2: MPSLVVSGIMERNGGFGELGCFGGSAKDRGLLEDERALQLALDQLCLLGLGEPPAPTAGEDGGGGGGGAPAQPAAPPQPAPPPPPAAPPAAPTAAPAAQTPQPPTAPKGASDAKLCALYKEAELRLKGSSNTTECVPVPTSEHVAEIVGRQGCKIKALRAKTNTYIKTPVRGEEPVFMVTGRREDVATARREIISAAEHFSMIRASRNKSGAAFGVAPALPGQVTIRVRVPYRVVGLVVGPKGATIKRIQQQTNTYIITPSRDRDPVFEITGAPGNVERAREEIETHIAVRTGKILEYNNENDFLAGSPDAAIDSRYSDAWRVHQPGCKPLSTFRQNSLGCIGECGVDSGFEAPRLGEQGGDFGYGGYLFPGYGVGKQDVYYGVAETSPPLWAGQENATPTSVLFSSASSSSSSSAKARAGPPGAHRSPATSAGPELAGLPRRPPGEPLQGFSKLGGGGLRSPGGGRDCMVCFESEVTAALVPCGHNLFCMECAVRICERTDPECPVCHITATQAIRIFS
# B2: FLAG-tagged DND1 wild-type (Dead End, full-length human protein 1-353) [human] / SYNCRIP [human (endogenous in HEK293T)] (parent)
# chain 1: B1 chain 1
# chain 2: MATEHVNGNGTEEPMDTTSAVIHSENFQTLLDAGLPQKVAEKLDEIYVAGLVAHSDLDERAIEALKEFNEDGALAVLQQFKDSDLSHVQNKSAFLCGVMKTYRQREKQGTKVADSSKGPDEAKIKALLERTGYTLDVTTGQRKYGGPPPDSVYSGQQPSVGTEIFVGKIPRDLFEDELVPLFEKAGPIWDLRLMMDPLTGLNRGYAFVTFCTKEAAQEAVKLYNNHEIRSGKHIGVCISVANNRLFVGSIPKSKTKEQILEEFSKVTEGLTDVILYHQPDDKKKNRGFCFLEYEDHKTAAQARRRLMSGKVKVWGNVGTVEWADPIEDPDPEVMAKVKVLFVRNLANTVTEEILEKAFSQFGKLERVKKLKDYAFIHFDERDGAVKAMEEMNGKDLEGENIEIVFAKPPDQKRKERKAQRQAAKNQMYDDYYYYGPPHMPPPTRGRGRGGRGGYGYPPDYYGYEDYYDYYGYDYHNYRGGYEDPYYGYEDFQVGARGRGGRGARGAAPSRGRGAAPPRGRAGYSQRGGPGSARGVRGARGGAQQQRGRGVRGARGGRGGNVGGKRKADGYNQPDSKRRQTNNQNWGSQPIAQQPLQGGDHSGNYGYKSENQEFYQDTFGQQWK
# B3: FLAG-tagged DND1 wild-type (Dead End, full-length human protein 1-353) [human] / HNRNPC [human (endogenous in HEK293T)] (parent)
# chain 1: B1 chain 1
# chain 2: MASNVTNKTDPRSMNSRVFIGNLNTLVVKKSDVEAIFSKYGKIVGCSVHKGFAFVQYVNERNARAAVAGEDGRMIAGQVLDINLAAEPKVNRGKAGVKRSAAEMYGSVTEHPSPSPLLSSSFDLDYDFQRDYYDRMYSYPARVPPPPPIARAVVPSKRQRVSGNTSRRGKSGFNSKSGQRGSSKSGKLKGDDLQAIKKELTQIKQKVDSLLENLEKIEKEQSKQAVEMKNDKSEEEQSSSSVKKDETNVKMESEGGADDSAEEGDLLDDDDNEDRGDDQLELIKDDEKEAEEGEDDRDSANGEDDS
# B4: FLAG-tagged DND1 wild-type (Dead End, full-length human protein 1-353) [human] / DHX30 [human (endogenous in HEK293T)] (parent)
# chain 1: B1 chain 1
# chain 2: MFSLDSFRKDRAQHRQRQCKLPPPRLPPMCVNPTPGGTISRASRDLLKEFPQPKNLLNSVIGRALGISHAKDKLVYVHTNGPKKKKVTLHIKWPKSVEVEGYGSKKIDAERQAAAAACQLFKGWGLLGPRNELFDAAKYRVLADRFGSPADSWWRPEPTMPPTSWRQLNPESIRPGGPGGLSRSLGREEEEDEEEELEEGTIDVTDFLSMTQQDSHAPLRDSRGSSFEMTDDDSAIRALTQFPLPKNLLAKVIQIATSSSTAKNLMQFHTVGTKTKLSTLTLLWPCPMTFVAKGRRKAEAENKAAALACKKLKSLGLVDRNNEPLTHAMYNLASLRELGETQRRPCTIQVPEPILRKIETFLNHYPVESSWIAPELRLQSDDILPLGKDSGPLSDPITGKPYVPLLEAEEVRLSQSLLELWRRRGPVWQEAPQLPVDPHRDTILNAIEQHPVVVISGDTGCGKTTRIPQLLLERYVTEGRGARCNVIITQPRRISAVSVAQRVSHELGPSLRRNVGFQVRLESKPPSRGGALLFCTVGILLRKLQSNPSLEGVSHVIVDEVHERDVNTDFLLILLKGLQRLNPALRLVLMSATGDNERFSRYFGGCPVIKVPGFMYPVKEHYLEDILAKLGKHQYLHRHRHHESEDECALDLDLVTDLVLHIDARGEPGGILCFLPGWQEIKGVQQRLQEALGMHESKYLILPVHSNIPMMDQKAIFQQPPVGVRKIVLATNIAETSITINDIVHVVDSGLHKEERYDLKTKVSCLETVWVSRANVIQRRGRAGRCQSGFAYHLFPRSRLEKMVPFQVPEILRTPLENLVLQAKIHMPEKTAVEFLSKAVDSPNIKAVDEAVILLQEIGVLDQREYLTTLGQRLAHISTDPRLAKAIVLAAIFRCLHPLLVVVSCLTRDPFSSSLQNRAEVDKVKALLSHDSGSDHLAFVRAVAGWEEVLRWQDRSSRENYLEENLLYAPSLRFIHGLIKQFSENIYEAFLVGKPSDCTLASAQCNEYSEEEELVKGVLMAGLYPNLIQVRQGKVTRQGKFKPNSVTYRTKSGNILLHKSTINREATRLRSRWLTYFMAVKSNGSVFVRDSSQVHPLAVLLLTDGDVHIRDDGRRATISLSDSDLLRLEGDSRTVRLLKELRRALGRMVERSLRSELAALPPSVQEEHGQLLALLAELLRGPCGSFDVRKTADD
# B5: FLAG-tagged DND1 wild-type (Dead End, full-length human protein 1-353) [human] / HNRNPL [human (endogenous in HEK293T)] (parent)
# chain 1: B1 chain 1
# chain 2: MSRRLLPRAEKRRRRLEQRQQPDEQRRRSGAMVKMAAAGGGGGGGRYYGGGSEGGRAPKRLKTDNAGDQHGGGGGGGGGAGAAGGGGGGENYDDPHKTPASPVVHIRGLIDGVVEADLVEALQEFGPISYVVVMPKKRQALVEFEDVLGACNAVNYAADNQIYIAGHPAFVNYSTSQKISRPGDSDDSRSVNSVLLFTILNPIYSITTDVLYTICNPCGPVQRIVIFRKNGVQAMVEFDSVQSAQRAKASLNGADIYSGCCTLKIEYAKPTRLNVFKNDQDTWDYTNPNLSGQGDPGSNPNKRQRQPPLLGDHPAEYGGPHGGYHSHYHDEGYGPPPPHYEGRRMGPPVGGHRRGPSRYGPQYGHPPPPPPPPEYGPHADSPVLMVYGLDQSKMNCDRVFNVFCLYGNVEKVKFMKSKPGAAMVEMADGYAVDRAITHLNNNFMFGQKLNVCVSKQPAIMPGQSYGLEDGSCSYKDFSESRNNRFSTPEQAAKNRIQHPSNVLHFFNAPLEVTEENFFEICDELGVKRPSSVKVFSGKSERSSSGLLEWESKSDALETLGFLNHYQMKNPNGPYPYTLKLCFSTAQHAS
# B6: FLAG-tagged DND1 wild-type (Dead End, full-length human protein 1-353) [human] / MATR3 [human (endogenous in HEK293T)] (parent)
# chain 1: B1 chain 1
# chain 2: MSKSFQQSSLSRDSQGHGRDLSAAGIGLLAAATQSLSMPASLGRMNQGTARLASLMNLGMSSSLNQQGAHSALSSASTSSHNLQSIFNIGSRGPLPLSSQHRGDADQASNILASFGLSARDLDELSRYPEDKITPENLPQILLQLKRRRTEEGPTLSYGRDGRSATREPPYRVPRDDWEEKRHFRRDSFDDRGPSLNPVLDYDHGSRSQESGYYDRMDYEDDRLRDGERCRDDSFFGETSHNYHKFDSEYERMGRGPGPLQERSLFEKKRGAPPSSNIEDFHGLLPKGYPHLCSICDLPVHSNKEWSQHINGASHSRRCQLLLEIYPEWNPDNDTGHTMGDPFMLQQSTNPAPGILGPPPPSFHLGGPAVGPRGNLGAGNGNLQGPRHMQKGRVETSRVVHIMDFQRGKNLRYQLLQLVEPFGVISNHLILNKINEAFIEMATTEDAQAAVDYYTTTPALVFGKPVRVHLSQKYKRIKKPEGKPDQKFDQKQELGRVIHLSNLPHSGYSDSAVLKLAEPYGKIKNYILMRMKSQAFIEMETREDAMAMVDHCLKKALWFQGRCVKVDLSEKYKKLVLRIPNRGIDLLKKDKSRKRSYSPDGKESPSDKKSKTDGSQKTESSTEGKEQEEKSGEDGEKDTKDDQTEQEPNMLLESEDELLVDEEEAAALLESGSSVGDETDLANLGDVASDGKKEPSDKAVKKDGSASAAAKKKLKKVDKIEELDQENEAALENGIKNEENTEPGAESSENADDPNKDTSENADGQSDENKDDYTIPDEYRIGPYQPNVPVGIDYVIPKTGFYCKLCSLFYTNEEVAKNTHCSSLPHYQKLKKFLNKLAEERRQKKET
# B7: FLAG-tagged DND1 wild-type (Dead End, full-length human protein 1-353) [human] / RNA helicase MOV10 [human (endogenous in HEK293T)] (parent)
# chain 1: B1 chain 1
# chain 2: MPSKFSCRQLREAGQCFESFLVVRGLDMETDRERLRTIYNRDFKISFGTPAPGFSSMLYGMKIANLAYVTKTRVRFFRLDRWADVRFPEKRRMKLGSDISKHHKSLLAKIFYDRAEYLHGKHGVDVEVQGPHEARDGQLLIRLDLNRKEVLTLRLRNGGTQSVTLTHLFPLCRTPQFAFYNEDQELPCPLGPGECYELHVHCKTSFVGYFPATVLWELLGPGESGSEGAGTFYIARFLAAVAHSPLAAQLKPMTPFKRTRITGNPVVTNRIEEGERPDRAKGYDLELSMALGTYYPPPRLRQLLPMLLQGTSIFTAPKEIAEIKAQLETALKWRNYEVKLRLLLHLEELQMEHDIRHYDLESVPMTWDPVDQNPRLLTLEVPGVTESRPSVLRGDHLFALLSSETHQEDPITYKGFVHKVELDRVKLSFSMSLLSRFVDGLTFKVNFTFNRQPLRVQHRALELTGRWLLWPMLFPVAPRDVPLLPSDVKLKLYDRSLESNPEQLQAMRHIVTGTTRPAPYIIFGPPGTGKTVTLVEAIKQVVKHLPKAHILACAPSNSGADLLCQRLRVHLPSSIYRLLAPSRDIRMVPEDIKPCCNWDAKKGEYVFPAKKKLQEYRVLITTLITAGRLVSAQFPIDHFTHIFIDEAGHCMEPESLVAIAGLMEVKETGDPGGQLVLAGDPRQLGPVLRSPLTQKHGLGYSLLERLLTYNSLYKKGPDGYDPQFITKLLRNYRSHPTILDIPNQLYYEGELQACADVVDRERFCRWAGLPRQGFPIIFHGVMGKDEREGNSPSFFNPEEAATVTSYLKLLLAPSSKKGKARLSPRSVGVISPYRKQVEKIRYCITKLDRELRGLDDIKDLKVGSVEEFQGQERSVILISTVRSSQSFVQLDLDFNLGFLKNPKRFNVAVTRAKALLIIVGNPLLLGHDPDWKVFLEFCKENGGYTGCPFPAKLDLQQGQNLLQGLSKLSPSTSGPHSHDYLPQEREGEGGLSLQVEPEWRNEL
# Variants of: B1
# Assay: FLAG immunoprecipitation and LC/ESI-MS/MS
# Settings: with MEX3A [human (endogenous in HEK293T)]; HEK293T cells, three biological replicates; read off a plot
row,screen value,Variant
1,-3.2,chain 1 R98A

# Variants of: B2
# Assay: FLAG immunoprecipitation and LC/ESI-MS/MS
# Settings: with SYNCRIP [human (endogenous in HEK293T)]; HEK293T cells, three biological replicates; read off a plot
row,screen value,Variant
1,-2.5,chain 1 R98A

# Variants of: B3
# Assay: FLAG immunoprecipitation and LC/ESI-MS/MS
# Settings: with HNRNPC [human (endogenous in HEK293T)]; HEK293T cells, three biological replicates; read off a plot
row,screen value,Variant
1,-0.8,chain 1 R98A

# Variants of: B4
# Assay: FLAG immunoprecipitation and LC/ESI-MS/MS
# Settings: with DHX30 [human (endogenous in HEK293T)]; HEK293T cells, three biological replicates; read off a plot
row,screen value,Variant
1,-2.3,chain 1 R98A

# Variants of: B5
# Assay: FLAG immunoprecipitation and LC/ESI-MS/MS
# Settings: with HNRNPL [human (endogenous in HEK293T)]; HEK293T cells, three biological replicates; read off a plot
row,screen value,Variant
1,-1.7,chain 1 R98A

# Variants of: B6
# Assay: FLAG immunoprecipitation and LC/ESI-MS/MS
# Settings: with MATR3 [human (endogenous in HEK293T)]; HEK293T cells, three biological replicates; read off a plot
row,screen value,Variant
1,-0.52,chain 1 R98A

# Variants of: B7
# Assay: FLAG immunoprecipitation and LC/ESI-MS/MS
# Settings: with RNA helicase MOV10 [human (endogenous in HEK293T)]; HEK293T cells, three biological replicates; read off a plot
row,screen value,Variant
1,-3.2,chain 1 R98A

# Source: publication PMC9537309
